Measured values as given in PMC7367873, “Dissecting the sequence determinants for dephosphorylation by the catalytic subunits of phosphatases PP1 and PP2A” (Nature Communications, 2020).
One block for each molecule: values may come before it.

How the values were obtained:
[1] = tested on: GFP-14-3-3β and its binding proteins; experiment: GFP-14-3-3β co-IP with LC-MS/MS label-free quantification, untreated versus PP1c-treated; set-up: species or system human; settings: label-free quantification, 3 replicates each
[2] = tested on: GFP-14-3-3β; experiment: GFP-14-3-3β co-IP with LC-MS/MS, untreated GFP-14-3-3β versus GFP control (14-3-3 interactome); format: binding, human; settings: label-free quantification, 3 replicates each
[3] = GFP-14-3-3β co-IP LC-MS/MS, PP1 vs untreated, student's t-test
[4] = GFP-14-3-3β co-IP LC-MS/MS, untreated vs GFP, student's t-test

Difference (log2), PP1 vs untreated [1, 3]: -0.4911 log2
B1: WDR3 (protein, UniProt Q9UNX4 1-943, looked up)
WD repeat-containing protein 3: MGLTKQYLRYVASAVFGVIGSQKGNIVFVTLRGEKGRYVAVPACEHVFIWDLRKGEKILILQGLKQEVTCLCPSPDGLHLAVGYEDGSIRIFSLLSGEGNVTFNGHKAAITTLKYDQLGGRLASGSKDTDIIVWDVINESGLYRLKGHKDAITQALFLREKNLLVTSGKDTMVKWWDLDTQHCFKTMVGHRTEVWGLVLLSEEKRLITGASDSELRVWDIAYLQEIEDPEEPDPKKIKGSSPGIQDTLEAEDGAFETDEAPEDRILSCRKAGSIMREGRDRVVNLAVDKTGRILACHGTDSVLELFCILSKKEIQKKMDKKMKKARKKAKLHSSKGEEEDPEVNVEMSLQDEIQRVTNIKTSAKIKSFDLIHSPHGELKAVFLLQNNLVELYSLNPSLPTPQPVRTSRITIGGHRSDVRTLSFSSDNIAVLSAAADSIKIWNRSTLQCIRTMTCEYALCSFFVPGDRQVVIGTKTGKLQLYDLASGNLLETIDAHDGALWSMSLSPDQRGFVTGGADKSVKFWDFELVKDENSTQKRLSVKQTRTLQLDEDVLCVSYSPNQKLLAVSLLDCTVKIFYVDTLKFFLSLYGHKLPVICMDISHDGALIATGSADRNVKIWGLDFGDCHKSLFAHDDSVMYLQFVPKSHLFFTAGKDHKIKQWDADKFEHIQTLEGHHQEIWCLAVSPSGDYVVSSSHDKSLRLWERTREPLILEEEREMEREAEYEESVAKEDQPAVPGETQGDSYFTGKKTIETVKAAERIMEAIELYREETAKMKEHKAICKAAGKEVPLPSNPILMAYGSISPSAYVLEIFKGIKSSELEESLLVLPFSYVPDILKLFNEFIQLGSDVELICRCLFFLLRIHFGQITSNQMLVPVIEKLRETTISKVSQVRDVIGFNMAGLDYLKRECEAKSEVMFFADATSHLEEKKRKRKKREKLILTLT
Difference (log2), untreated vs GFP [2, 4]: 0.8072 log2

Difference (log2), PP1 vs untreated [1, 3]: -0.5334 log2
B5: UBTF (protein, UniProt P17480 1-764, looked up)
Nucleolar transcription …: MNGEADCPTDLEMAAPKGQDRWSQEDMLTLLECMKNNLPSNDSSKFKTTESHMDWEKVAFKDFSGDMCKLKWVEISNEVRKFRTLTELILDAQEHVKNPYKGKKLKKHPDFPKKPLTPYFRFFMEKRAKYAKLHPEMSNLDLTKILSKKYKELPEKKKMKYIQDFQREKQEFERNLARFREDHPDLIQNAKKSDIPEKPKTPQQLWYTHEKKVYLKVRPDATTKEVKDSLGKQWSQLSDKKRLKWIHKALEQRKEYEEIMRDYIQKHPELNISEEGITKSTLTKAERQLKDKFDGRPTKPPPNSYSLYCAELMANMKDVPSTERMVLCSQQWKLLSQKEKDAYHKKCDQKKKDYEVELLRFLESLPEEEQQRVLGEEKMLNINKKQATSPASKKPAQEGGKGGSEKPKRPVSAMFIFSEEKRRQLQEERPELSESELTRLLARMWNDLSEKKKAKYKAREAALKAQSERKPGGEREERGKLPESPKRAEEIWQQSVIGDYLARFKNDRVKALKAMEMTWNNMEKKEKLMWIKKAAEDQKRYERELSEMRAPPAATNSSKKMKFQGEPKKPPMNGYQKFSQELLSNGELNHLPLKERMVEIGSRWQRISQSQKEHYKKLAEEQQKQYKVHLDLWVKSLSPQDRAAYKEYISNKRKSMTKLRGPNPKSSRTTLQSKSESEEDDEEDEDDEDEDEEEEDDENGDSSEDGGDSSESSSEDESEDGDENEEDDEDEDDDEDDDEDEDNESEGSSSSSSSSGDSSDSDSN
Difference (log2), untreated vs GFP [2, 4]: 1.529 log2

The next lines start with the molecule.

B2: LMNA (protein, UniProt P02545 1-661, looked up)
Prelamin-A/C: METPSQRRATRSGAQASSTPLSPTRITRLQEKEDLQELNDRLAVYIDRVRSLETENAGLRLRITESEEVVSREVSGIKAAYEAELGDARKTLDSVAKERARLQLELSKVREEFKELKARNTKKEGDLIAAQARLKDLEALLNSKEAALSTALSEKRTLEGELHDLRGQVAKLEAALGEAKKQLQDEMLRRVDAENRLQTMKEELDFQKNIYSEELRETKRRHETRLVEIDNGKQREFESRLADALQELRAQHEDQVEQYKKELEKTYSAKLDNARQSAERNSNLVGAAHEELQQSRIRIDSLSAQLSQLQKQLAAKEAKLRDLEDSLARERDTSRRLLAEKEREMAEMRARMQQQLDEYQELLDIKLALDMEIHAYRKLLEGEEERLRLSPSPTSQRSRGRASSHSSQTQGGGSVTKKRKLESTESRSSFSQHARTSGRVAVEEVDEEGKFVRLRNKSNEDQSMGNWQIKRQNGDDPLLTYRFPPKFTLKAGQVVTIWAAGAGATHSPPTDLVWKAQNTWGCGNSLRTALINSTGEEVAMRKLVRSVTVVEDDEDEDGDDLLHHHHGSHCSSSGDPAEYNLRSRTVLCGTCGQPADKASASGSGAQVGGPISSGSSASSVTVTRSYRSVGGSGGGSFGDNLVTRSYLLGNSSPRTQSPQNC
Difference (log2), PP1 vs untreated [1, 3]: -0.4623 log2
Difference (log2), untreated vs GFP [2, 4]: -0.3549 log2

B3: HNRNPH1 (protein, UniProt P31943 1-449, looked up)
Heterogeneous nuclear …: MMLGTEGGEGFVVKVRGLPWSCSADEVQRFFSDCKIQNGAQGIRFIYTREGRPSGEAFVELESEDEVKLALKKDRETMGHRYVEVFKSNNVEMDWVLKHTGPNSPDTANDGFVRLRGLPFGCSKEEIVQFFSGLEIVPNGITLPVDFQGRSTGEAFVQFASQEIAEKALKKHKERIGHRYIEIFKSSRAEVRTHYDPPRKLMAMQRPGPYDRPGAGRGYNSIGRGAGFERMRRGAYGGGYGGYDDYNGYNDGYGFGSDRFGRDLNYCFSGMSDHRYGDGGSTFQSTTGHCVHMRGLPYRATENDIYNFFSPLNPVRVHIEIGPDGRVTGEADVEFATHEDAVAAMSKDKANMQHRYVELFLNSTAGASGGAYEHRYVELFLNSTAGASGGAYGSQMMGGMGLSNQSSYGGPASQQLSGGYGGGYGGQSSMSGYDQVLQENSSDFQSNIA
Difference (log2), PP1 vs untreated [1, 3]: -0.5044 log2
Difference (log2), untreated vs GFP [2, 4]: 0.1701 log2

B4: TCF25 (protein, UniProt Q9BQ70 1-676, looked up)
Ribosome quality control …: MSRRALRRLRGEQRGQEPLGPGALHFDLRDDDDAEEEGPKRELGVRRPGGAGKEGVRVNNRFELINIDDLEDDPVVNGERSGCALTDAVAPGNKGRGQRGNTESKTDGDDTETVPSEQSHASGKLRKKKKKQKNKKSSTGEASENGLEDIDRILERIEDSTGLNRPGPAPLSSRKHVLYVEHRHLNPDTELKRYFGARAILGEQRPRQRQRVYPKCTWLTTPKSTWPRYSKPGLSMRLLESKKGLSFFAFEHSEEYQQAQHKFLVAVESMEPNNIVVLLQTSPYHVDSLLQLSDACRFQEDQEMARDLVERALYSMECAFHPLFSLTSGACRLDYRRPENRSFYLALYKQMSFLEKRGCPRTALEYCKLILSLEPDEDPLCMLLLIDHLALRARNYEYLIRLFQEWEAHRNLSQLPNFAFSVPLAYFLLSQQTDLPECEQSSARQKASLLIQQALTMFPGVLLPLLESCSVRPDASVSSHRFFGPNAEISQPPALSQLVNLYLGRSHFLWKEPATMSWLEENVHEVLQAVDAGDPAVEACENRRKVLYQRAPRNIHRHVILSEIKEAVAALPPDVTTQSVMGFDPLPPSDTIYSYVRPERLSPISHGNTIALFFRSLLPNYTMEGERPEEGVAGGLNRNQGLNRLMLAVRDMMANFHLNDLEAPHEDDAEGEGEWD
Difference (log2), PP1 vs untreated ([1]; log2 difference, pairwise comparison PP1 vs untreated): 1.673
Difference (log2), untreated vs GFP ([2]; log2 difference, pairwise comparison untreated vs GFP): -0.2721

B6: PHGDH (protein, UniProt O43175 2-533, looked up)
D-3-phosphoglycerate …: AFANLRKVLISDSLDPCCRKILQDGGLQVVEKQNLSKEELIAELQDCEGLIVRSATKVTADVINAAEKLQVVGRAGTGVDNVDLEAATRKGILVMNTPNGNSLSAAELTCGMIMCLARQIPQATASMKDGKWERKKFMGTELNGKTLGILGLGRIGREVATRMQSFGMKTIGYDPIISPEVSASFGVQQLPLEEIWPLCDFITVHTPLLPSTTGLLNDNTFAQCKKGVRVVNCARGGIVDEGALLRALQSGQCAGAALDVFTEEPPRDRALVDHENVISCPHLGASTKEAQSRCGEEIAVQFVDMVKGKSLTGVVNAQALTSAFSPHTKPWIGLAEALGTLMRAWAGSPKGTIQVITQGTSLKNAGNCLSPAVIVGLLKEASKQADVNLVNAKLLVKEAGLNVTTSHSPAAPGEQGFGECLLAVALAGAPYQAVGLVQGTTPVLQGLNGAVFRPEVPLRRDLPLLLFRTQTSDPAMLPTMIGLLAEAGVRLLSYQTSLVSDGETWHVMGISSLLPSLEAWKQHVTEAFQFHF
Difference (log2), PP1 vs untreated [1, 3]: -0.3751 log2
Difference (log2), untreated vs GFP [2, 4]: -0.2834 log2

B7: IGHMBP2 (protein, UniProt P38935 2-993, looked up)
DNA-binding protein SMUBP-2: ASAAVESFVTKQLDLLELERDAEVEERRSWQENISLKELQSRGVCLLKLQVSSQRTGLYGRLLVTFEPRRYGSAAALPSNSFTSGDIVGLYDAANEGSQLATGILTRVTQKSVTVAFDESHDFQLSLDRENSYRLLKLANDVTYRRLKKALIALKKYHSGPASSLIEVLFGRSAPSPASEIHPLTFFNTCLDTSQKEAVLFALSQKELAIIHGPPGTGKTTTVVEIILQAVKQGLKVLCCAPSNIAVDNLVERLALCKQRILRLGHPARLLESIQQHSLDAVLARSDSAQIVADIRKDIDQVFVKNKKTQDKREKSNFRNEIKLLRKELKEREEAAMLESLTSANVVLATNTGASADGPLKLLPESYFDVVVIDECAQALEASCWIPLLKARKCILAGDHKQLPPTTVSHKAALAGLSLSLMERLAEEYGARVVRTLTVQYRMHQAIMRWASDTMYLGQLTAHSSVARHLLRDLPGVAATEETGVPLLLVDTAGCGLFELEEEDEQSKGNPGEVRLVSLHIQALVDAGVPARDIAVVSPYNLQVDLLRQSLVHRHPELEIKSVDGFQGREKEAVILSFVRSNRKGEVGFLAEDRRINVAVTRARRHVAVICDSRTVNNHAFLKTLVEYFTQHGEVRTAFEYLDDIVPENYSHENSQGSSHAATKPQGPATSTRTGSQRQEGGQEAAAPARQGRKKPAGKSLASEAPSQPSLNGGSPEGVESQDGVDHFRAMIVEFMASKKMQLEFPPSLNSHDRLRVHQIAEEHGLRHDSSGEGKRRFITVSKRAPRPRAALGPPAGTGGPAPLQPVPPTPAQTEQPPREQRGPDQPDLRTLHLERLQRVRSAQGQPASKEQQASGQQKLPEKKKKKAKGHPATDLPTEEDFEALVSAAVKADNTCGFAKCTAGVTTLGQFCQLCSRRYCLSHHLPEIHGCGERARAHARQRISREGVLYAGSGTKNGSLDPAKRAQLQRRLDKKLSELSNQRTSRRKERGT
Difference (log2), PP1 vs untreated [1, 3]: -0.3964 log2
Difference (log2), untreated vs GFP [2, 4]: 0.7737 log2
